The supplement of paper PMC9170038

Test system: K4 kissing-loop RNA reporter
Experiment: apparent KD of K4 kissing-loop reporter; higher = weaker reporter binding
Settings: Eterna round: R107
Experimental: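 RNA-MaP round R107: designed RNA switches with theophylline, tryptophan, arginine or FMN aptamers are transcribed on-chip within common flanks. They are titrated with a labelled K4 kissing-loop RNA reporter in RNA-MaP buffer (100 mM Tris pH 7.5, 80 mM KCl, 4 mM MgCl2), without ligand or with the indicated ligand. Median apparent KD per design.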

[1] = input ligand: theophylline 20 uM
[2] = input ligand: tryptophan 2.4 mM
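Also: bound reporter read as fluorescence of individual clusters on recovered sequencing chips by microscopy, with normalized cluster intensities fitted with a binding model.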

| Sequence | apparent KD of K4 kissing-loop reporter (input ligand: FMN 200 uM) [nM] | apparent KD of K4 kissing-loop reporter (input ligand: arginine 13.2 mM) [nM] | apparent KD of K4 kissing-loop reporter (input ligand: none) [nM] | apparent KD of K4 kissing-loop reporter [1] [nM] | apparent KD of K4 kissing-loop reporter [2] [nM] |
| --- | --- | --- | --- | --- | --- |
| AUGGUUGUCGUAGGAUAUGUAGGAUAUUCCUAUAGCAGUGAUGUUGCUAAUAUCUUGGAAAGAAGGACAGAAGGACGAUAACCAC [KL-SSFMN-B2 #analogue] | 114 | 112 | 119 | 108 | 111 |
| AUGUAUGAAUUAGGAUAUCGUUAGCCUUGCAUAUAUAUGAUAAAUGGAUAUGUCGUAGUGAUGUUACGAGAAGGAGUGUGGAGUA [KL-XFMN-B5] | 44.6 | 50.5 | 38.9 | 63.4 | 30.2 |
| AUGUAUGAAUUAGGAUAUCGUUAGCCUUUCAUAUAUAUGAUAAAUGGAUAUGUCGUAGUGAUGUUACGAGAAGGAGUGUGGAGUA [KL-XFMN-B8] | 49.3 | 52.9 | 38.2 | 64.6 | 30.5 |
| AUGUUGAGCGGAAGGAGCGGCUGAGCCAGUGAUGUUGGUUAAUCCAAGUGAUGUUGGAAAAGCCAGGUAGGUCGCCGUUUUACGU [whbob_SS_Arginine_B_2t145] | 1010 | 597 | 1190 | 807 | 887 |
| AUUAAUAACAGAGGAUAUGCAUUUUUAUUAUUUUUUAUUAUUAUAUGCAGUGAUGUUGCAUAUUAAGCAGAAGGCUGAUUUAUUU [JR_SSFMNB_Sub013] | 117 | 105 | 79 | 110 | 102 |
| AUUAAUAUCACGGCCGCCACUGAAUAUUGUUUUUAUAUUUAGAAUAAUUGCCAGUGAUGUUGGAUCAGGACCGGGUGAUUUUAUA [JR_SSTryptoB_Sub008] | 775 | 489 | 727 | 739 | 360 |
| AUUAAUUUCAGAGGAUAUCGUAUUUAUAUUAUAUCUUUCCAUAUUUGCAGUGAUGUUGCAUUAAUUCGAGAAGGCUGAUUUAUAA [JR_Nu_ExcFMNB_Sub024] | 86.1 | 91 | 60.4 | 82.4 | 53.7 |
| AUUAAUUUCAGAGGAUAUCGUUAUUUUUUAUAGUAUAUUCAAUUAUGCAGUGAUGUUGCUAUUAAUCGAGAAGGCUGAUUUAUAA [JR_ExcFMNB_Sub002] | 179 | 204 | 156 | 250 | 112 |
| AUUCAGAUCUGAAGGAGCGCGUUGACAUAUUGCUUCAUUGAGCAGUGAUGUUGCUCAGUAACGCAGGUAGGUCGCAGAUCUGGCC [Arg B Ex t7a] | 113 | 110 | 99 | 92.3 | 104 |
| AUUCAUUUCAGAGGAUAUCGAUGGAGAGUGAUGUUCUCCCAUAGCCAGUGAUGUUGGCUAGCUAUUCGAGAAGGCUGUGGGUGGA [Same State FMN B GF 27] | 141 | 227 | 210 | 202 | 208 |
| AUUCGCAGUGAUGUUGCGAUUCCGUUGAGGGAGGAUAUUGGUAAUACAAGAAGGCCCGGCUGCGGGUGAUGUUCGCAUUAGGGCC [Exclusion FMN A GF18] | 151 | 143 | 146 | 153 | 126 |
| AUUCGCUCCACUGAUACCAGUCAUCGAGCAAGAUGCUAAGCCAGUGAUGUUGGCAUGAAUGACCCUUGGCAGCAGUACACUAAGG [Theo B SS t7] | 65.4 | 106 | 75.6 | 113 | 60 |
| AUUCUAUUGUGAAGGAGCGCGUAUAGUAGUGAUGUUACUAUAAUAAUAGAUAUUUAAUUCUCGCAGGUAGGUCGCACAAUAUAUA [JR_Nu_ExcArginiB_Sub025] | 102 | 82.6 | 96.3 | 85.6 | 92 |
| AUUCUGUUUUUGAUGUUUUUUGUAUAAUGGCAGGAUAUCGUAGAAGCGAGAAGGGCUUUUAUGCGUUAUGAGUGAUGUUUGUAGG [ttytewvmullin] | 298 | 222 | 271 | 275 | 227 |
| AUUGUACAAGUGAUGUUUGUUUUUUCCGAAGGAGCGUCUAAUAAGACAGGUAGGUCGCGGAUUCUCUUAAUAAUCAGGUCAUUAA [JR_Nu_ExcArginiA_Sub020] | 364 | 275 | 305 | 281 | 221 |
| AUUUAAUGUAUAGAUUAUAUACAUAAUUCAGAGGAUAUGCAUAGAAGCAGAAGGCUGGUUGCAGUGAUGUUGCUUUUUUAAUUUA [JR_SSFMNA_Sub008] | 30.9 | 125 | 76.7 | 185 | 63.8 |
